Measured values as given in PMC3040262.

Molecular target: PP1α_(7-330), His6-tag removed by TEV protease, P62136
Test: SEC

PP1α_(7-330), His6-tag removed by TEV protease, P62136, sequence (P62136 7-330): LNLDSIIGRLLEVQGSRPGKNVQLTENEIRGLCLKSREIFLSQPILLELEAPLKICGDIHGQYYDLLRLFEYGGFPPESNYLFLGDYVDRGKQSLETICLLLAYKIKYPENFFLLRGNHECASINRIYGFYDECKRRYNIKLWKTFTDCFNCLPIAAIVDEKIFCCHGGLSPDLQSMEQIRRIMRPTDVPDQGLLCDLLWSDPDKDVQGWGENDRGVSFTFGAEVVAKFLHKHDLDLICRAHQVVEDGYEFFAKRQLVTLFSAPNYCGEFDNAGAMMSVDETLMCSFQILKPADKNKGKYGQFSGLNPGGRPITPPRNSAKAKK

stoichiometry N: 1
B1: I-2_(9-164) C85S (domain or fragment)
chain: PIKGILKNKTSTTSSMVASAEQPRGNVDEELSKKSQKWDEMNILATYHPADKDYGLMKIDEPSTPYHSMMGDDEDASSDTEATEAMAPDILARKLAAAEGLEPKYRIQEQESSGEEDSDLSPEEREKKRQFEMKRKLHYNEGLNIKLARQLISKDL
modifications: not checked
